Substitutions are numbered along the chain they refer to.

This data set deals with T1, PF3D7_0420300 D1 (Plasmodium falciparum, UniProt Q8I1N6 1956-2015).
T1 sequence: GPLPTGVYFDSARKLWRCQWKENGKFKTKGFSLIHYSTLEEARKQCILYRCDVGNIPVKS
Nature of the data set: gcPBM; about 25 ug protein; PBS, 1% milk, 0.2 mg/ml BSA, salmon testes DNA, 0.03% Triton X-100. As to conditions: tags: N-terminal GST (pGEX-4T-1), kept; label: surface-attached array probe.

B1: CACACA_negctrl_site10 (dsDNA)
DNA 1: AAATCACAAAAAAAAAAAAAAATATATATATATATA
DNA 2: TATATATATATATATTTTTTTTTTTTTTTGTGATTT
For the molecule B1, the binding signal was 8.95 ln median PBM intensity, better of two orientations.

B2: CACACA_negctrl_site285 (dsDNA)
DNA 1: TATTATGTCTAAAATAACATATTAATATATTATTTC
DNA 2: GAAATAATATATTAATATGTTATTTTAGACATAATA
As for B2, the binding signal was 8.94 ln median PBM intensity, better of two orientations.

B3: CACACA_negctrl_site521 (dsDNA)
DNA 1: TAGTTCTTTTAATTTAGTATTATACAATATTGGAAA
DNA 2: TTTCCAATATTGTATAATACTAAATTAAAAGAACTA
Turning to B3, the binding signal was 8.91 ln median PBM intensity, better of two orientations.

B4: CACACA_negctrl_site460 (dsDNA)
DNA 1: ATAATGTATTTATATATATATATATATTTTAATAAA
DNA 2: TTTATTAAAATATATATATATATATAAATACATTAT
Turning to B4, the binding signal was 8.96 ln median PBM intensity, better of two orientations.

B5: CACACA_negctrl_site1155 (dsDNA)
DNA 1: TAAATGTCTTCAATGAAGTGGAAATGCTGTTATATA
DNA 2: TATATAACAGCATTTCCACTTCATTGAAGACATTTA
For B5, the binding signal is 8.99 ln median PBM intensity, better of two orientations.

B6: CACACA_negctrl_site930 (dsDNA)
DNA 1: ACATATATATATATATATATATATATATATTCTTAA
DNA 2: TTAAGAATATATATATATATATATATATATATATGT
Regarding B6, the binding signal was 8.93 ln median PBM intensity, better of two orientations.

B7: CACACA_negctrl_site1311 (dsDNA)
DNA 1: TTACATTTTTGAAATAGATACATACACGTGTATGTA
DNA 2: TACATACACGTGTATGTATCTATTTCAAAAATGTAA
Turning to B7, the binding signal is 9.01 ln median PBM intensity, better of two orientations.

B8: CACACA_site8825 (dsDNA)
DNA 1: AAAAAAGATAATTATGCACACACACCCACCCACCCA
DNA 2: TGGGTGGGTGGGTGTGTGTGCATAATTATCTTTTTT
For the molecule B8, the binding signal is 10.6 ln median PBM intensity, better of two orientations.

B9: CACACA_site6208 (dsDNA)
DNA 1: ATATAAATATGACACACACACAAAAAAAATAAAGAC
DNA 2: GTCTTTATTTTTTTTGTGTGTGTGTCATATTTATAT
B9: the binding signal is 10.6 ln median PBM intensity, better of two orientations.

B10: CACACA_negctrl_site979 (dsDNA)
DNA 1: ATGTAATTCTTTTACTTTTTTTTTTTTTTTTTTTTT
DNA 2: AAAAAAAAAAAAAAAAAAAAAGTAAAAGAATTACAT
B10: the binding signal was 8.97 ln median PBM intensity, better of two orientations.

B11: CACACA_negctrl_site60 (dsDNA)
DNA 1: TTATAGGTTCTATACATATATTTATATATGTACAGA
DNA 2: TCTGTACATATATAAATATATGTATAGAACCTATAA
With B11, the binding signal was 8.89 ln median PBM intensity, better of two orientations.

B12: CACACA_negctrl_site1765 (dsDNA)
DNA 1: TACTTTATATTATATATATATATATATATATATATA
DNA 2: TATATATATATATATATATATATATAATATAAAGTA
Turning to B12, the binding signal is 9 ln median PBM intensity, better of two orientations.

B13: CACACA_negctrl_site609 (dsDNA)
DNA 1: GTATATATATATATATATATATATATATATATATAT
DNA 2: B13 DNA 1 with G1A, T36C
On to B13, for which the binding signal was 8.9 ln median PBM intensity, better of two orientations.

B14: CACACA_negctrl_site1830 (dsDNA)
DNA 1: ATGGACATTTTATAAATCACAATGGATATTTTATAA
DNA 2: TTATAAAATATCCATTGTGATTTATAAAATGTCCAT
B14: the binding signal is 8.96 ln median PBM intensity, better of two orientations.

B15: CACACA_negctrl_site1391 (dsDNA)
DNA 1: ATTTTTTTTTTTTTTTTTTTTTTTTTTTGATTTGTG
DNA 2: CACAAATCAAAAAAAAAAAAAAAAAAAAAAAAAAAT
In the case of B15, the binding signal is 8.99 ln median PBM intensity, better of two orientations.

B16: CACACA_negctrl_site84 (dsDNA)
DNA 1: CACACTTTTTAAATTAACGCATTTCAAAAAAAATAT
DNA 2: ATATTTTTTTTGAAATGCGTTAATTTAAAAAGTGTG
B16: the binding signal is 8.95 ln median PBM intensity, better of two orientations.

B17: CACACA_site2373 (dsDNA)
DNA 1: ATGTTCTTTAAAACCACACACCCCCCAACCCCCCTC
DNA 2: GAGGGGGGTTGGGGGGTGTGTGGTTTTAAAGAACAT
In the case of B17, the binding signal is 10.6 ln median PBM intensity, better of two orientations.

B18: CACACA_negctrl_site1763 (dsDNA)
DNA 1: AAAAAAAAATATACATATATATATATATATATATAT
DNA 2: ATATATATATATATATATATATGTATATTTTTTTTT
For B18, the binding signal was 8.93 ln median PBM intensity, better of two orientations.

B19: CACACA_negctrl_site786 (dsDNA)
DNA 1: B18 DNA 1 with A3T, A6T, C14T, A35T
DNA 2: B18 DNA 2 with T2A, G23A, T31A, T34A
Regarding B19, the binding signal is 9 ln median PBM intensity, better of two orientations.

B20: CACACA_negctrl_site62 (dsDNA)
DNA 1: TATATGTTAATTTTTTTTTTTTTTTTTTTTTTTATA
DNA 2: TATAAAAAAAAAAAAAAAAAAAAAAATTAACATATA
For B20, the binding signal is 8.98 ln median PBM intensity, better of two orientations.

B21: CACACA_negctrl_site810 (dsDNA)
DNA 1: AGAAAGGAGGAAATAAAAGGACTTCTTTTTTTATAT
DNA 2: ATATAAAAAAAGAAGTCCTTTTATTTCCTCCTTTCT
As to B21, the binding signal was 8.99 ln median PBM intensity, better of two orientations.

B22: CACACA_negctrl_site1620 (dsDNA)
DNA 1: ATCTAAATAATATATATATATAATATTAATAATATA
DNA 2: TATATTATTAATATTATATATATATATTATTTAGAT
Regarding B22, the binding signal was 8.99 ln median PBM intensity, better of two orientations.

B23: CACACA_negctrl_site1522 (dsDNA)
DNA 1: TTTTTATGTTATCAAATAAATATAAATATAATTCAT
DNA 2: ATGAATTATATTTATATTTATTTGATAACATAAAAA
With B23, the binding signal was 8.91 ln median PBM intensity, better of two orientations.

B24: CACACA_site8094 (dsDNA)
DNA 1: AAAAAAATTTGGCATACACACACACCCCCACCCACA
DNA 2: TGTGGGTGGGGGTGTGTGTGTATGCCAAATTTTTTT
B24: the binding signal was 10.6 ln median PBM intensity, better of two orientations.

B25: CACACA_negctrl_site232 (dsDNA)
DNA 1: AAACAAAATTTATTTCAAAGTTAATAATTTTTATGT
DNA 2: ACATAAAAATTATTAACTTTGAAATAAATTTTGTTT
Take B25: the binding signal is 8.93 ln median PBM intensity, better of two orientations.

B26: CACACA_negctrl_site1320 (dsDNA)
DNA 1: TTTTAAAACAATGAGATTCCTTTCTTTTTTTCTTTT
DNA 2: AAAAGAAAAAAAGAAAGGAATCTCATTGTTTTAAAA
For the molecule B26, the binding signal was 8.89 ln median PBM intensity, better of two orientations.

B27: CACACA_negctrl_site1645 (dsDNA)
DNA 1: TATTTTAGAGAAAAAAATAAATTACAAAATGTTAGG
DNA 2: CCTAACATTTTGTAATTTATTTTTTTCTCTAAAATA
B27: the binding signal is 8.98 ln median PBM intensity, better of two orientations.

B28: CACACA_negctrl_site214 (dsDNA)
DNA 1: TTTTTATTTTTATACATATAATATATTATGATTAAA
DNA 2: TTTAATCATAATATATTATATGTATAAAAATAAAAA
As to B28, the binding signal was 8.98 ln median PBM intensity, better of two orientations.

B29: CACACA_negctrl_site515 (dsDNA)
DNA 1: GACTCATTAAGGATTATTCCTAATGATCAAAAGAAC
DNA 2: GTTCTTTTGATCATTAGGAATAATCCTTAATGAGTC
Regarding B29, the binding signal is 9 ln median PBM intensity, better of two orientations.

B30: CACACA_negctrl_site825 (dsDNA)
DNA 1: TAAGTTCACAAAAAAAAAAAAAAATAAAGAAATAAA
DNA 2: TTTATTTCTTTATTTTTTTTTTTTTTTGTGAACTTA
Consider B30, for which the binding signal was 8.98 ln median PBM intensity, better of two orientations.

B31: CACACA_negctrl_site329 (dsDNA)
DNA 1: TTTAATTTATATAATGATATTAAGTTGGTTATTAGG
DNA 2: CCTAATAACCAACTTAATATCATTATATAAATTAAA
In the case of B31, the binding signal is 9 ln median PBM intensity, better of two orientations.

B32: CACACA_negctrl_site245 (dsDNA)
DNA 1: TTTTTATTTTATAATATATTCCTTTTCCTTTCTTTC
DNA 2: GAAAGAAAGGAAAAGGAATATATTATAAAATAAAAA
For the molecule B32, the binding signal was 8.97 ln median PBM intensity, better of two orientations.

B33: CACACA_negctrl_site309 (dsDNA)
DNA 1: TTATTCCTTTTCCTTTTTTTTTTTTAACCAAAAAAA
DNA 2: TTTTTTTGGTTAAAAAAAAAAAAGGAAAAGGAATAA
Turning to B33, the binding signal was 8.9 ln median PBM intensity, better of two orientations.

B34: CACACA_negctrl_site165 (dsDNA)
DNA 1: TCTCAAGTTGTTAAAAAATAAAAACAATAAATCTAA
DNA 2: TTAGATTTATTGTTTTTATTTTTTAACAACTTGAGA
For B34, the binding signal is 8.93 ln median PBM intensity, better of two orientations.

B35: CACACA_negctrl_site753 (dsDNA)
DNA 1: ATTTTTTTTTAATGCAATATATTTTGAAAATTTTAT
DNA 2: ATAAAATTTTCAAAATATATTGCATTAAAAAAAAAT
On to B35, for which the binding signal is 8.96 ln median PBM intensity, better of two orientations.

B36: CACACA_negctrl_site237 (dsDNA)
DNA 1: ATTCTATTTTTTATAAAACCATGTCATCAACATAGG
DNA 2: CCTATGTTGATGACATGGTTTTATAAAAAATAGAAT
As for B36, the binding signal is 8.99 ln median PBM intensity, better of two orientations.

B37: CACACA_negctrl_site1574 (dsDNA)
DNA 1: TTTTTTAAAAGAAAATAAAAAATAAGCATAATATGA
DNA 2: TCATATTATGCTTATTTTTTATTTTCTTTTAAAAAA
For B37, the binding signal was 8.99 ln median PBM intensity, better of two orientations.

B38: CACACA_negctrl_site1348 (dsDNA)
DNA 1: TTATTATCATCAAATCAAAAAATTCTTTTACCTGTT
DNA 2: AACAGGTAAAAGAATTTTTTGATTTGATGATAATAA
For the molecule B38, the binding signal was 8.94 ln median PBM intensity, better of two orientations.

B39: CACACA_negctrl_site674 (dsDNA)
DNA 1: TAAAATGATAAATGAATGTGATCATTTTATAAAATA
DNA 2: TATTTTATAAAATGATCACATTCATTTATCATTTTA
Take B39: the binding signal was 9.01 ln median PBM intensity, better of two orientations.

B40: CACACA_negctrl_site571 (dsDNA)
DNA 1: TTTGTAATAAACTACTTTTTTTTTTTTTTTTTTTTT
DNA 2: AAAAAAAAAAAAAAAAAAAAAGTAGTTTATTACAAA
Regarding B40, the binding signal is 8.96 ln median PBM intensity, better of two orientations.

B41: CACACA_negctrl_site1833 (dsDNA)
DNA 1: TAATATTTTTATTATTAGAATTGTATATGTTTAATA
DNA 2: TATTAAACATATACAATTCTAATAATAAAAATATTA
As to B41, the binding signal is 8.92 ln median PBM intensity, better of two orientations.

The values above are taken from paper PMC11417369, “DNA sequence and chromatin differentiate sequence-specific transcription factor binding in the human malaria parasite Plasmodium falciparum”.
